Data taken from patent US20120165265A1, “Calcium Signaling Modulators Involving STIM and ORAI Proteins” (priority 2009, published 2012).

Biological target: eGFP-myc-Orai1 (UniProt Q96D31)
Assay: cell-based or functional assay

Chain of eGFP-myc-Orai1 (Q96D31 whole entry): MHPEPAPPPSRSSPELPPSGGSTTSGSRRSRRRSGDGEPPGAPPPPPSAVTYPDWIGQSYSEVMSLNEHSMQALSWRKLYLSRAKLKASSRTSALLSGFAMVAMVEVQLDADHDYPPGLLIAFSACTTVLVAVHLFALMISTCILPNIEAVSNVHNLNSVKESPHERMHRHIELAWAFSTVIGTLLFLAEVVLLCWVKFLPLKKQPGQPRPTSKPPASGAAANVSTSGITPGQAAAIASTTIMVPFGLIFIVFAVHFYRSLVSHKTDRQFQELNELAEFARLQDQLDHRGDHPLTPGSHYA

diffusion coefficient fitted to FRAP of a single cell expressing eGFP-Orai1 with CAD: 0.026 µm^2/s
effective diffusion coefficient (D) of GFP-Orai1 co-expressed with CAD, FRAP in HEK 293 cells: 0.036 µm^2/s
mobile fraction of GFP-Orai1 co-expressed with CAD, FRAP: 87%
slowing of Orai1 diffusion by CAD, FRAP: 2 fold
Substance: mCh-CAD (from UniProt Q13586 342-448)
